Source: patent US20200407445A1 (ITEOS THERAPEUTICS, published 2020)
Numbering of substitutions follows the chain as printed.

Tests used:
Human TIGIT-His = biological target: T1, Human TIGIT-His (human, UniProt Q495A1 22-141, biotinylated in the ForteBio Fab assay); experiment: ForteBio BLI, Fab KD, monovalent
T1 construct: bought (Creative Biomart); also called Biotinylated Human TIGIT HIS; TIGIT-His monomer; not shown: His tag
T1 sequence (looked up): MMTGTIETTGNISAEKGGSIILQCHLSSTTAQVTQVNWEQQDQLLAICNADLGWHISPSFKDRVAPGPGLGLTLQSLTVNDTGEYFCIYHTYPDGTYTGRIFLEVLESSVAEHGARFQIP

Mouse TIGIT-Fc = biological target: T2, Mouse TIGIT-Fc (mouse, UniProt P86176 29-148, limits assumed); experiment: ForteBio BLI, Fab KD, monovalent
T2 construct: not shown: Fc part
T2 sequence (looked up): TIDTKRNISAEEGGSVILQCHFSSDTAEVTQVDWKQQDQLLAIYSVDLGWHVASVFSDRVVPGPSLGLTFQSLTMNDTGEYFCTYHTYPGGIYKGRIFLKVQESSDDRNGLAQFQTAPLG

Cyno TIGIT-Fc = biological target: T3, Cyno TIGIT-Fc (cynomolgus, UniProt A0A7N9I9V4 89-209); experiment: ForteBio BLI, Fab KD, monovalent
T3 construct: not shown: Fc part

[1] = biological target: T4, human TIGIT expressed on cells (human, UniProt Q495A1 22-244); experiment: flow cytometry on Jurkat-hTIGIT
T4 construct: whole, on cells; on Jurkat E6.1 cells transduced with human TIGIT, on Promega TIGIT Effector cells or on human primary T cells; the assay field says which; also called hTIGIT; Jurkat-hTIGIT
T4 sequence (looked up): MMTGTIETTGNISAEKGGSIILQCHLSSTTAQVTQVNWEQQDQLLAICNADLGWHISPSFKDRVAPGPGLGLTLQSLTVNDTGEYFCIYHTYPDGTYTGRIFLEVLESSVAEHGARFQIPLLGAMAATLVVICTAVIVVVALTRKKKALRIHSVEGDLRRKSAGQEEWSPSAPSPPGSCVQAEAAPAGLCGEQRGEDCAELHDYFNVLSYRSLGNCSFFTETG
Description: Antibodies were incubated with the cells for 20 min at 4° C. in FACS buffer. […] Fluorescence intensity was analysed using LSR BD Fortessa and cell binding was recorded as the median fluorescence intensity of PE in cells expressing TIGIT at their surface.
The half-maximal concentration of binding (EC50) to Jurkat-hTIGIT was calculated using a four-variable curve-fit equation in Prism.

[2] = biological target: T4, human TIGIT expressed on cells; experiment: flow cytometry, primary CD8+ T cells of healthy human PBMC, MFI
Description: Isolated human PBMCs from healthy volunteers were analysed for binding by antagonist anti-TIGIT antibodies. Cells were distributed at 1×10⁵ cells per well. Cells were incubated with anti-CD16 (Clone 3G8, BioLegend 302002), CD32 (Clone FLI8.26, BD Bioscience 557333) and CD64 (BD Bioscience 555525) at room temperature for 10 min, and the indicated anti-human TIGIT antibody clones were directly added at a final concentration of 8; 4; 2; 1; 0.5; 0.25; 0.125; 0.062; 0.031; 0.016; 8×10⁻³ and 4×10⁻³ nM in FACS buffer and incubated for 20 min at 4° C. […] Then, cells were washed and incubated with the following antibodies and LVD mix: anti-CD4-PercP-Cy5.5 (clone A161A1, BioLegend 357414); anti-CD8-BV510 (clone SK1, BD Bioscience 563919) and LVD efluor 660 (eBioscience 65-0864-18).
The EC50 values for binding to CD8+ human primary T cells were calculated using the MFI signal on living TIGIT+CD8+ T cells.

[3] = biological target: T4, human TIGIT expressed on cells; experiment: flow cytometry, primary CD8+ T cells of cancer patients' PBMC, MFI
Description: Cells were distributed at 1×10^5 cells per well. […] Then, cells were washed and incubated with the following antibodies and life viability dye (LVD) mix: anti-CD4-PercP-Cy5.5 (clone A161A1, BioLegend 357414); anti-CD8-BV510 (clone SK1, BD Bioscience 563919) and LVD efluor 520 (eBioscience 65-0867-14). Cells were washed and fixed and surface staining was quantified using BD LSR Fortessa. Flow cytometry data was analysed using FlowJo V10.1. TIGIT MFI on gated LVD-TIGIT+CD8+ cells was used to calculate EC50 values.

[4] = biological target: T4, human TIGIT expressed on cells; experiment: flow cytometry, competition with CD155-His (15 ug/ml) on Jurkat-hTIGIT
[5] = biological target: T5, recombinant human TIGIT protein (construct not stated) (human, UniProt Q495A1 22-141, limits assumed); experiment: Biacore T200, IgG captured by anti-human Fc, antigen in solution, 1:1 kinetic model
T5 construct: also called hTIGIT (Creative Biomart); recombinant TIGIT protein
T5 sequence (looked up): T1 sequence (looked up)
Description: Biosensor analysis was conducted at 25° C. in a HBS-EP buffer system (10 mM HEPES pH 7.3, 150 mM NaCl, 3 mM EDTA, 0.05% Tween20) using Biacore T200 technology, CMS sensor chip (run at Novalix, France). The sample hotel was maintained at 8° C. Goat anti-human IgG capture antibody (Fcγ fragment specific, Jackson ImmunoResearch Laboratories) was immobilized (10000 RU) to both flow cells of the sensor chip using standard amine coupling chemistry. This surface type provided a format for reproducibly capturing fresh analysis antibody after each regeneration step. Flow cell 2 was used to analyse captured antibody while flow cell 1 was used as a reference flow cell. […] Two blank (buffer) injections also were run and used to assess and subtract system artefacts. The association (300 s) and dissociation (600 s) phases for all antigen concentrations were performed at a flow rate of 30 uL/min. The surface was regenerated with three sequential injections (15 s, 15 s and 60 s) of 10 mM glycine-HCl, pH 1.5. The obtained sensorgrams were fitted globally to a 1:1 model (assuming the same kinetic values for all applied concentrations).

[6] = biological target: T4, human TIGIT expressed on cells; experiment: cell-based or functional assay
[7] = biological target: T4, human TIGIT expressed on cells; experiment: cell-based or functional assay; remark: listed apart in the source

T3 sequence (A0A7N9I9V4 entry or part of it): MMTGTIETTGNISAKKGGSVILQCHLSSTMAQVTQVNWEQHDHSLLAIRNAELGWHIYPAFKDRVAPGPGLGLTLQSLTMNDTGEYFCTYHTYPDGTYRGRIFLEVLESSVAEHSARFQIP

B1: Fab of anti-TIGIT clone 26432 (Fab, V domains shown)
VH: QVQLVQSGAEVKKPGSSVKVSCKASGGTFSSYAISWVRQAPGQGLEWMGGIIPIFGTANYAQKFQGRVTITADESTSTAYMELSSLRSEDTAVYYCAREAQSYRVPFDIWGQGTMVTVSS
VL: EIVMTQSPATLSVSPGERATLSCRASQSVSSNLAWYQQKPGQAPRLLIYGASTRATGIPARFSGSGSGTEFTLTISSLQSEDFAVYYCQQYAIWPPFTFGGGTKVEIK
Human TIGIT-His
  Kd: 13.1 nM
Mouse TIGIT-Fc
  binding result: no binding
Cyno TIGIT-Fc
  binding result: no binding

B2: TIG1 (comparative anti-TIGIT antibody, human IgG1) (antibody, V domains shown)
VH: DVQLVESGGGLVQPGGSRKLSCAASGFTFSNFGMHWVRQAPEKGLEWVAFISSGSSSIYYADTVKGRFTISRDNPKNTLFLQMTSLRSEDTAMYYCARMRLDYYAMDYWGQGTSVTVSS
VL: DVQITQSPSYLAASPGETITINCRASKSISKYLAWYQEKPGKTNKLLIYSGSTLQSGIPSRFSGSGSGTDFTLTISSLEPEDFAMYYCQQHNEYPWTFGGGTKLEIK
notes: from WO2017/152088; made in HEK cells as human IgG1
[1]
  EC50: 0.17 nM
  Fold change of EC50 over EC50 of best clone (31282_wu): 1.6 fold
[2]
  EC50: 0.38 nM
  Fold change of EC50 over EC50 of best clone (31282_wu): 2 fold
[3]
  EC50: 0.33 nM
  Fold change of EC50 over EC50 of best clone (31282): 2.7 fold
[4]
  Fold change of IC50 over IC50 of best clone (31282_up): 1.6 fold
  IC50: 0.06 nM
[5]
  Kd: 2.49 nM
  koff: 0.0131 s⁻¹

B3: Fab of anti-TIGIT clone 29478 (Fab, V domains shown)
VH: EVQLVESGGGVVQPGRSLRLSCAASGFTFESYGMVWVRQAPGKGLEWVASILYDGSNRYYADSVKGRFTVSRDNSKNTLYLQMNSLRAEDTAVYYCARVSYYYDSVELRWAEYFQHWGQGTLVTVSS
VL: EIVLTQSPATLSLSPGERATLSCRASQSVSSYLAWYQQKPGQAPRLLIYDASKRATGIPARFSGSGSGTDFTLTISSLEPEDFAVYYCQQVHNFPLTFGGGTKVEIK
Human TIGIT-His
  Kd: 0.703 nM
Mouse TIGIT-Fc
  Kd: 91.8 nM
Cyno TIGIT-Fc
  Kd: 1.26 nM

B4: 22G2 (comparative anti-TIGIT antibody, human IgG1) (antibody, V domains shown)
VH: QVHLQESGPGLVKPSETLSLTCTVSGGSVSSGIYYWSWIRQPPGKGLEWIGYIYYSGSTNYNPSLKSRVTISVDTSKNQFSLKLSSVTAADTAVYYCARDYYVSGNYYNVDYYFFGVDVWGQGTTVTVSS
VL: EIVLTQSPATLSLSPGERATLSCRASQSVSSYLAWYQQKPGQAPRLLIYDASNRATGIPARFSGSGSGTDFTLTISSLEPEDFAVYYCQQRSNWPPLFTFGPGTKVDIK
notes: from WO2016/106302; made in HEK cells as human IgG1
[6]
  EC50 (nM), luciferase, Jurkat-hTIGIT: 5.2 nM
  Fold change of EC50 over EC50 of best clone (31282_up): 1.6 fold
  Induction over Isotype control (fold change), luciferase, Jurkat-hTIGIT + CD155 aAPC/CHO-K1: 5.3 fold
[7]
  EC50 (nM), IFNg, human primary CD8+ T cells: 0.41 nM
  Fold change of EC50 over EC50 of best clone (31282_wu): 3.1 fold
  Induction over isotype control (fold change), IFNg, human primary CD8+ T cells + CD155 aAPC/CHO-K1: 1.5 fold
[1]
  EC50: 0.32 nM
  Fold change of EC50 over EC50 of best clone (31282_wu): 3 fold
[2]
  EC50: 1.17 nM
  Fold change of EC50 over EC50 of best clone (31282_wu): 6.1 fold
[3]
  EC50: 0.37 nM
  Fold change of EC50 over EC50 of best clone (31282): 3.1 fold
[4]
  Fold change of IC50 over IC50 of best clone (31282_up): 2.2 fold
  IC50: 0.09 nM
[5]
  Kd: 0.071 nM
  koff: 0.000178 s⁻¹

B5: Fab of anti-TIGIT clone 29499 (Fab, V domains shown)
VH: QLQLQESGPGLVKPSETLSLTCTVSGGSISSSRYYWAWIRQPPGKGLEWIGSIGTSGSTYYNPSLKSRVTISVDTSKNQFSLKLSSVTATDTAVYYCAIEGANFRDFGYVAFDIWGQGTMVTVSS
VL: EIVMTQSPATLSVSPGERATLSCRASQSVSSNLAWYQQKPGQAPRLLIYGASTRATGIPARFSGSGSGTEFTLTISSLQSEDFAVYYCQQSPPWPRTFGGGTKVEIK
Human TIGIT-His
  Kd: 1.66 nM
Mouse TIGIT-Fc
  Kd: 25.5 nM
Cyno TIGIT-Fc
  Kd: 14.5 nM

B6: Fab of anti-TIGIT clone 29513 (Fab, V domains shown)
VH: QVQLVQSGAEVKKPGSSVKVSCKASGGTFQNYAISWVRQAPGQGLEWMGVIVPIFGTANYAQKFQGRVTVTADESTSTAYMELSSLRSEDTAVYYCARLHLGQKAYYGMDVWGQGTTVTVSS
VL: DIQMTQSPSSLSASVGDRVTITCRASQSISSYLNWYQQKPGKAPKLLIYAASSLQSGVPSRFSGSGSGTDFTLTISSLQPEDFATYYCQQRYVFPPTFGGGTKVEIK
Human TIGIT-His
  Kd: 0.774 nM
Mouse TIGIT-Fc
  Kd: 85.5 nM
Cyno TIGIT-Fc
  Kd: 9.56 nM

B7: Fab of anti-TIGIT clone 29523 (Fab, V domains shown)
VH: EVQLVESGGGVVQPGRSLRLSCAASGFTFGSYYMHWVRQAPGKGLEWVAVIWPDGSNKLYADSVKGRFTISRDNSKNTLYLQMNSLRAEDTALYYCAKPVPKSRALDVWGQGTMVTVSS
VL: DIQLTQSPSSVSASVGDRVTITCRASQGISSWLAWYQQKPGKAPKLLIYGASSLQSGVPSRFSGSGSGTDFTLTISSLQPEDFATYYCQQAFYLPWTFGGGTKVEIK
Human TIGIT-His
  Kd: 3.84 nM
Mouse TIGIT-Fc
  Kd: 18.9 nM
Cyno TIGIT-Fc
  Kd: 27.9 nM

B8: Fab of anti-TIGIT clone 29520 (Fab, V domains shown)
VH: QVQLVESGGGLVQPGRSLRLSCAASGFTFRDYAMHWVRQAPGKGLEWVSGITWNSGLIGYADSVKGRFTISRDNAKNSLYLQMNSLRAEDTALYYCAKPVPRLRGLDVWGQGTMVTVSS
VL: B7 VL
Human TIGIT-His
  Kd: 1.31 nM
Mouse TIGIT-Fc
  Kd: 1.95 nM
Cyno TIGIT-Fc
  Kd: 2.68 nM

B9: Fab of anti-TIGIT clone 26493 (Fab, V domains shown)
VH: B8 VH with Q1E, R30G, L57S, R102K, L103S
VL: B7 VL
Human TIGIT-His
  Kd: 40.6 nM
Mouse TIGIT-Fc
  Kd: 26.7 nM
Cyno TIGIT-Fc
  binding result: no binding

B10: Fab of anti-TIGIT clone 29527 (Fab, V domains shown)
VH: B7 VH with E1Q, G30S, Y32S, W52G, P53A, L59Y, K65E, K102R, S103R, A105G
VL: B7 VL
Human TIGIT-His
  Kd: 1.33 nM
Mouse TIGIT-Fc
  Kd: 20.2 nM
Cyno TIGIT-Fc
  Kd: 17.6 nM
